B1: HDV Ribozyme (parent)
chain: GGCCGGCAUGGUCCCAGCCUCCUCGCUGGCGCCGGCUGGGCAACAUUCCGAGGGGACCGUCCCCUCGGUAAUGGCGAAUGGGACCCA

For 167 variants, self-cleavage results are on record in the RNAGym collection of RNA variant scans (doi:10.7554/elife.80360).

In the series the parent is B1. Put plainly: self-cleavage, relative activity (ratio to wild type); higher = more cleavage; co-transcriptional.
Turning to C18A C24U, the self-cleavage came out at 0.104.

With C18A C24A, the self-cleavage was determined as 0.163.

As to C18G C49G, the self-cleavage is 0.0723.

In the case of C18G C49A, the self-cleavage was 0.0791.

In the case of A16U U79A, the self-cleavage came to 1.09.

Turning to A16U U72C, the self-cleavage was 0.569.

Regarding C18A G35A, the self-cleavage stood at 0.199.

Consider C18U C33G, for which the self-cleavage came to 0.252.

On to C18G U20A, for which the self-cleavage stood at 0.161.

Turning to C18G C30A, the self-cleavage is 0.0739.

With C18G C30U, the self-cleavage stood at 0.0386.

On to G17U A70U, for which the self-cleavage amounted to 0.574.

For G17C A51C, the self-cleavage came to 0.308.

Take C18U A51C: the self-cleavage came to 0.901.

On to C18U G81U, for which the self-cleavage turned out to be 0.281.

For the variant G17C G52A, the self-cleavage was 0.415.

Consider G17C G52U, for which the self-cleavage was determined as 0.363.

For C18G C84U, the self-cleavage amounted to 0.0386.

Regarding C18G C84G, the self-cleavage was determined as 0.237.

For C18U C21A, the self-cleavage was determined as 0.115.

With C18U C21U, the self-cleavage was found to be 0.0911.

For G17A G25A, the self-cleavage is 0.117.

Consider C18U U72C, for which the self-cleavage turned out to be 0.193.

On to C18U U72A, for which the self-cleavage is 0.175.

C18U U72G: the self-cleavage was determined as 0.287.

For the variant C18A A71U, the self-cleavage was 0.

For the variant G17A C32G, the self-cleavage was determined as 0.0415.

For the variant G17A C32U, the self-cleavage was determined as 0.369.

For the variant C18A U47A, the self-cleavage is 0.0692.

In the case of G17A G76C, the self-cleavage was determined as 0.665.

Consider G17A G76U, for which the self-cleavage is 0.863.

G17A C75A: the self-cleavage was 0.128.

For the variant G17A C75U, the self-cleavage was 0.138.

Turning to G17U C64U, the self-cleavage is 0.521.

For G17U C86U, the self-cleavage came out at 0.612.

On to C18U C85G, for which the self-cleavage is 0.975.

Turning to G17C G29C, the self-cleavage is 0.166.

Consider C18A G52C, for which the self-cleavage stood at 0.0346.

Regarding G17A A43G, the self-cleavage was 0.277.

G17C A56C: the self-cleavage came out at 0.302.

Consider G17C G38A, for which the self-cleavage amounted to 0.0396.

As to G17C G38C, the self-cleavage was found to be 0.0831.

C18A C64A: the self-cleavage was found to be 0.136.

For the variant G17U C62G, the self-cleavage is 0.492.

With G17U C62U, the self-cleavage came out at 0.602.

For G17U A56U, the self-cleavage was determined as 0.533.

For the variant G17U C48A, the self-cleavage worked out at 0.538.

Regarding C18A G53U, the self-cleavage stood at 0.117.

Consider C18A G53C, for which the self-cleavage amounted to 0.214.

As to G17C G76U, the self-cleavage worked out at 0.773.

As for G17C G76A, the self-cleavage came to 0.446.

Take G17C G76C: the self-cleavage was determined as 0.499.

As to G17U C49A, the self-cleavage came to 0.614.

In the case of G17A C48G, the self-cleavage was 0.46.

Take G17A C48U: the self-cleavage was determined as 0.785.

As to G17A C48A, the self-cleavage is 0.506.

In the case of G17U G50C, the self-cleavage is 0.496.

As to G17A G73A, the self-cleavage came out at 0.34.

In the case of G17U A71U, the self-cleavage turned out to be 0.443.

In the case of G17A U37A, the self-cleavage was determined as 0.0415.

With C18G G73C, the self-cleavage was found to be 0.104.

Consider C18A C61U, for which the self-cleavage amounted to 0.237.

As for C18A G54C, the self-cleavage turned out to be 0.189.

On to C18A G38C, for which the self-cleavage was 0.145.

For C18A G38U, the self-cleavage came to 0.0652.

As for G17U C18G, the self-cleavage worked out at 0.095.

On to C18U C36A, for which the self-cleavage is 0.0739.

For the variant C18U C36U, the self-cleavage came to 0.198.

For the variant C18G G55C, the self-cleavage was determined as 0.185.

In the case of C18U G82A, the self-cleavage was 0.194.

In the case of C18G A45G, the self-cleavage was 0.0639.

For the variant G17A G29C, the self-cleavage came to 0.0405.

In the case of G17A G29U, the self-cleavage came out at 0.0767.

Take G17A G55A: the self-cleavage was 0.705.

Turning to C18G C58U, the self-cleavage came to 0.0978.

For the variant C18G C58G, the self-cleavage came out at 0.

Regarding G17C A83U, the self-cleavage is 0.256.

As to G17C A83G, the self-cleavage came out at 0.131.

Turning to G17A U23C, the self-cleavage worked out at 0.462.

Take C18U G40A: the self-cleavage came to 0.691.

Turning to C18U G40C, the self-cleavage is 0.281.

For C18U C57G, the self-cleavage is 0.831.

Turning to G17U C26A, the self-cleavage amounted to 0.491.

Consider G17C C33U, for which the self-cleavage worked out at 0.0475.

In the case of C18U G59U, the self-cleavage was 0.67.

With C18U G59A, the self-cleavage stood at 0.896.

As for G17C U60C, the self-cleavage was 0.208.

In the case of C18G A71C, the self-cleavage was 0.172.

Regarding C18G A71U, the self-cleavage turned out to be 0.0723.

For G17A C86A, the self-cleavage came to 0.538.

Take C18U U23C: the self-cleavage was determined as 0.415.

For C18U U23A, the self-cleavage is 0.519.

Consider G17A C22A, for which the self-cleavage worked out at 0.128.

As for G17A C22U, the self-cleavage came out at 0.194.

As for G17A A70C, the self-cleavage is 0.449.

With G17A A70G, the self-cleavage was determined as 0.554.

As to G17C G40C, the self-cleavage is 0.

G17C C75U: the self-cleavage came out at 0.

As for C18U C58U, the self-cleavage is 0.554.

As for C18U U27G, the self-cleavage was determined as 0.391.

On to G17U C30U, for which the self-cleavage came to 0.716.

As for G17U C21G, the self-cleavage amounted to 0.

With G17U C21A, the self-cleavage was determined as 0.0339.

As for C18G C41U, the self-cleavage was found to be 0.161.

Turning to C18U G54U, the self-cleavage was determined as 0.661.

Turning to G17A G38A, the self-cleavage came to 0.104.

Consider G17U G68A, for which the self-cleavage was found to be 0.478.

On to G17U G68C, for which the self-cleavage amounted to 0.542.

For the variant G17A C41U, the self-cleavage was determined as 0.46.

For the variant G17A C41A, the self-cleavage came to 0.47.

As for G17U A77U, the self-cleavage stood at 0.104.

On to G17U A77G, for which the self-cleavage was 0.0536.

For the variant G17A C64G, the self-cleavage was 0.496.

In the case of G17A C21U, the self-cleavage turned out to be 0.

On to G17U C58G, for which the self-cleavage amounted to 0.277.

As to G17U C58U, the self-cleavage came to 0.708.

In the case of C18A G25U, the self-cleavage is 0.162.

With G17A A56U, the self-cleavage stood at 0.528.

As for G17U G38U, the self-cleavage turned out to be 0.0369.

As to C18G C75G, the self-cleavage worked out at 0.229.

Regarding G17U U20A, the self-cleavage turned out to be 0.0378.

As for G17U U20C, the self-cleavage came out at 0.0573.

For the variant C18G C86A, the self-cleavage amounted to 0.

Consider C18U G34A, for which the self-cleavage amounted to 0.117.

With C18U G34C, the self-cleavage was determined as 0.155.

As to C18U G34U, the self-cleavage amounted to 0.0455.

In the case of C18U G73U, the self-cleavage amounted to 0.111.

With G17A G50A, the self-cleavage is 0.76.

On to G17A G28C, for which the self-cleavage stood at 0.0489.

With G17A C66A, the self-cleavage was found to be 0.748.

As to C18G G29C, the self-cleavage is 0.939.

On to C18A G76A, for which the self-cleavage stood at 0.0678.

As to G17A U46C, the self-cleavage was 0.506.

As for C18U U65C, the self-cleavage was found to be 0.831.

As for G17C C57U, the self-cleavage was determined as 0.256.

Turning to G17A C26U, the self-cleavage was 0.726.

As for C18U C62U, the self-cleavage came to 0.831.

Take G17C G54A: the self-cleavage came to 0.262.

With G17C G54U, the self-cleavage was 0.256.

C18A U46A: the self-cleavage was 0.0923.

As to G17A G52U, the self-cleavage turned out to be 0.728.

As to C18G A70C, the self-cleavage amounted to 0.

Turning to C18A C75A, the self-cleavage was 0.0906.

For G17C U23A, the self-cleavage was determined as 0.344.

On to G17C C24G, for which the self-cleavage is 0.0898.

For the variant G17C G74A, the self-cleavage is 0.089.

As to G17C G31C, the self-cleavage stood at 0.0475.

For C18G C85U, the self-cleavage turned out to be 0.095.

Consider C18G C85A, for which the self-cleavage turned out to be 0.0554.

C18G C85G: the self-cleavage is 0.

As for C18U U79G, the self-cleavage turned out to be 0.119.

With C18U A87C, the self-cleavage is 0.692.

On to C18U A87G, for which the self-cleavage stood at 0.733.

C18A G82A: the self-cleavage came out at 0.149.

Turning to C18A G82C, the self-cleavage came to 0.122.

Turning to C18A G68U, the self-cleavage is 0.147.

As for G17C A45U, the self-cleavage came to 0.107.

C18G C33G: the self-cleavage is 0.119.

For the variant C19A A43U, the self-cleavage was determined as 0.0222.

Turning to C18U C32U, the self-cleavage came to 0.327.

C18A C32U: the self-cleavage was 0.145.

C18A C32G: the self-cleavage was found to be 0.0875.

For the variant C18U C66G, the self-cleavage was determined as 0.813.

As for C18A G40A, the self-cleavage came out at 0.0426.

C18G G50C: the self-cleavage stood at 0.

As to C18G C22U, the self-cleavage stood at 0.0504.

In the case of C18G C57A, the self-cleavage worked out at 0.0536.
